The source of these data is patent US20250144228A1 (published 2025).

Assay [1] has as its target A/Hong Kong/8/1968 (H3N2) (influenza A virus).
Assay [2] deals with A/Wisconsin/629-D00015/2009 (H1N1)pdm09 (influenza A virus).
The target in a further assay is mouse IgG2b (mouse). Put plainly: ELISA.
For assay [3], the target named is Influenza A virus - A/Hong Kong/8/1968 (H3N2) (influenza A virus).
In a further assay the target is hemagglutinin (influenza A virus).
Assay [4] concerns the target a monoclonal mouse IgM, κ Isotype Ctrl (mouse). In words: ELISA.
The target of the next assay is mouse polyclonal IgG (mouse). In words: ELISA. (In general: ELISA stands for enzyme-linked immunosorbent assay.)
For the next assay, the target named is T1, mouse polyclonal IgA (mouse, UniProt P11911).
T1 sequence (P11911 whole entry, looked up): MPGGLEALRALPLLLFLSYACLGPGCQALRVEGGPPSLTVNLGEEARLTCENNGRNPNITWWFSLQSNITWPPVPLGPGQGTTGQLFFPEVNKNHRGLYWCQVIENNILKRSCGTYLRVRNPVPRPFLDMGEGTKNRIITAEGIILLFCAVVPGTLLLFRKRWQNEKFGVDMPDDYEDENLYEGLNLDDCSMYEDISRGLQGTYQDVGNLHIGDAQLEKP
In words: ELISA.

The target in assay [5] is T2, P. falciparum MSP-1 subunit p83 (plate-bound, isolated) (Plasmodium falciparum, UniProt Q8I0U8 20-722).
T2 chain: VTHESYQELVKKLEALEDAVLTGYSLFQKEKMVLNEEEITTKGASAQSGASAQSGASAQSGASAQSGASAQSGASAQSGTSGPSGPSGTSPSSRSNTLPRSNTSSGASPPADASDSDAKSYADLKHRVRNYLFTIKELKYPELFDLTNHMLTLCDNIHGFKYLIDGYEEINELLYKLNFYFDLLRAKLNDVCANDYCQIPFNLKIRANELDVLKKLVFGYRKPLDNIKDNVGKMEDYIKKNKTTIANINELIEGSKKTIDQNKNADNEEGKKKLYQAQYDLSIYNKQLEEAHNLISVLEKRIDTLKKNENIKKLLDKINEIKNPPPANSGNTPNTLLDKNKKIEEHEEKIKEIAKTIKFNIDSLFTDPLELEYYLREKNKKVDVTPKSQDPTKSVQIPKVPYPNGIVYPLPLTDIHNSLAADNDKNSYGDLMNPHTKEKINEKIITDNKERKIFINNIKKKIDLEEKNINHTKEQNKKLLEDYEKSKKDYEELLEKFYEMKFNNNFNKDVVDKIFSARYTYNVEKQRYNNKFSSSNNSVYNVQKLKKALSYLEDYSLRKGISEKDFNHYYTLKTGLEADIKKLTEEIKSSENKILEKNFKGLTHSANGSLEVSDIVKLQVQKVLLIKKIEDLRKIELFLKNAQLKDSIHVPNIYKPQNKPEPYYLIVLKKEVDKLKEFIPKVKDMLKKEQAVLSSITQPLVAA
In words: ELISA.

Assay [6] concerns the target T3, P. falciparum MSP-1 subunit p42 (plate-bound, isolated) (Plasmodium falciparum, UniProt Q8I0U8 1327-1699).
T3 chain: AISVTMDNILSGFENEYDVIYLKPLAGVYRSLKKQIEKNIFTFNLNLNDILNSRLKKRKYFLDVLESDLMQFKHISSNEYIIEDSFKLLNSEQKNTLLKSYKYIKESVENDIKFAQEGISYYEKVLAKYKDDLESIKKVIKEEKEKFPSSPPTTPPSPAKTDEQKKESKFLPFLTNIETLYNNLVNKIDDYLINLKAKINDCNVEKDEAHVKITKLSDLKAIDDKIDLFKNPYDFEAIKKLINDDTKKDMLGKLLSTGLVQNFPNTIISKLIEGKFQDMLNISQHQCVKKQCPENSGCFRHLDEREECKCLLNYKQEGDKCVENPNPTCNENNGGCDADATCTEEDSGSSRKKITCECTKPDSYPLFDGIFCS
In words: ELISA.

B1: SD36-biotin (VHH)
VHH: EVQLVESGGGLVQAGGSLKLSCAASGRTYAMGWFRQAPGKEREFVAHINALGTRTYYSDSVKGRFTISRDNAKNTEYLEMNNLKPEDTAVYYCTAQGQWRAAPVAVAAEYEFWGQGTQVTVSS
B1: the Kd (in general, the free concentration of one partner at which half of the binding sites on the other are occupied at equilibrium, for simple one-to-one binding) in [1] was 1.3 nM; in assay [2], 18.7 nM.

B2: VHHkappa-SD36-biotin-1 (bispecific antibody, V domains shown)
V domain 1: QVQLVESGGGWVQPGGSLRLSCAASGFTFSDTAMMWVRQAPGKGREWVAAIDTGGGYTYYADSVKGRFTISRDNAKNTLYLQMNSLKPEDTARYYCAKTYSGNYYSNYTVANYGTTGRGTLVTVSS
V domain 2: B1 VHH
Molecule B2 gave a Kd in the assay with mouse IgG2b of 2 nM.

B3: VHHkappa-SD36 (bispecific antibody, V domains shown)
V domain 1: B2 V domain 1
V domain 2: B1 VHH
Regarding B3, the figures for the Kd (in assay [3]; with hemagglutinin) were 0.6 nM and 15.5 nM, respectively.

B4: VHHkappa-SD36-biotin-2 (bispecific antibody, V domains shown)
V domain 1: B2 V domain 1
V domain 2: B1 VHH
As to B4, the affinity with mouse IgG2b, expressed as Kd, was 2.4 nM.

B5: VHHkappa (mouse)-biotin (VHH)
VHH: B2 V domain 1
Regarding B5, the results for the Kd (in [4]; with mouse polyclonal IgG; with mouse polyclonal IgA) were 0.0112 nM, 0.0072 nM and 0.508 nM, respectively.

B6: VHHkappa-biotin (VHH)
VHH: B2 V domain 1
In the assay with mouse IgG2b, B6 returned a Kd of 2.1 nM.

B7: anti-p83 B4 VHH (P. falciparum MSP-1 specific) (VHH)
VHH: QLQLVESGGGLAQAGGSLRLSCAASGRTSSTKPMGWFRQAPGLEREFVASISWLGGSTLYSDSVKGRFTISRDNAKNTVYLQMNSLKSEDTAVYYCAGGTSAYSGRDSSRYEYWGQGTQVTVSS
In assay [5], B7 had a Kd of 1.81 nM.

B8: anti-p42 G11 VHH (P. falciparum MSP-1 specific) (VHH)
VHH: QVQLVETGGGLVQAGGSLRLSCVVSGRSLILYGMGWFRQAPGKEREFVAGIVWNGGWTYYADSVKGRFTISRDTAKNTVYLQMNSLKPEDTAVYSCAAGPGDGRRRVAPAEYNYWGQGTQVTVSS
In turn, B8 gave a dissociation constant Kd in assay [6] of 0.52 nM.

B9: VHHkappa-SD36-biotin (genetic fusion) (bispecific antibody)
chain: QVQLVESGGGWVQPGGSLRLSCAASGFTFSDTAMMWVRQAPGKGREWVAAIDTGGGYTYYADSVKGRFTISRDNAKNTLYLQMNSLKPEDTARYYCAKTYSGNYYSNYTVANYGTTGRGTLVTVSSAAAGGGGSGGGGSGGGGSEVQLVESGGGLVQAGGSLKLSCAASGRTYAMGWFRQAPGKEREFVAHINALGTRTYYSDSVKGRFTISRDNAKNTEYLEMNNLKPEDTAVYYCTAQGQWRAAPVAVAAEYEFWGQGTQVTVSSGGLPETGGHHHHHH
For B9, the dissociation constant (Kd) stood at 1.8 nM in [1] and 59.7 nM in assay [2].

B10: VHHkappa (mouse)-SD36-biotin (bispecific antibody)
chain: B9 chain
Regarding B10, the Kd came to 0.0102 nM in assay [4], 0.0083 nM with mouse polyclonal IgG and 0.434 nM with mouse polyclonal IgA.

B11: anti-p42 A6 VHH (P. falciparum MSP-1 specific) (VHH)
VHH: QVQLVESGGGLVQAGGSLRLSCAASARTFSYYGAAWFRQAPGKEREFVAAVSWNGDDTYYADSVKGRFTISRDNTKNTVSLQMNALKPEDTAVYYCEAAAYGRDWRQSANYVYWGQGTQVTVSS
As to B11, the affinity in assay [6], expressed as Kd, was 1.96 nM.
